{"source": "paper PMC11039405", "biological_target": "T1, AmrZ (Pseudomonas aeruginosa PAO1) (UniProt G3XCY4)", "T1 sequence": "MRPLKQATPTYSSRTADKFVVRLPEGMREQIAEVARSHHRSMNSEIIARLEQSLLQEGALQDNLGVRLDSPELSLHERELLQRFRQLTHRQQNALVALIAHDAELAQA", "test": "EMSA", "data": [{"sequence": "GTTATCTGCTTTCGGCCAAGAGATTTGGCTCCTTGCATATTATAAGAACCCCAACACTTCCCGTCGTACCTTGAATGCCCCGCCTAGCGGAGAGGCATGAATACGCTCCGTTTTATTGATTTTCAAAGCCATGAGCACGGAGTCGATTTTATAATAATCAGGATTATCCGACGTGCGCTGA (double strand) [exsA promoter]", "values": [{"measurement": "binding", "result": "no binding"}]}]}
